Assay results from the supplement of paper PMC10126150.
± gives the standard deviation of the averaged measurements.

Tested on: ATP
Assay: switch fluorescence ratio, 500 uM ATP over buffer (Cy3 cluster intensity, sum of 5 cycles each) (fold (ratio)); higher = stronger signal-on switching upon ATP binding; sequences stand for … in TCGTCGGCAGCGTCAGATGTGTATAAGAGACAGTTTTTTTTTTTTTTTTTTTTTTTTT…TC
Details: aptamer strand: ATP DNA aptamer (quencher-CACCTGGGGGAGTATTGCGGAGGAAGG + anchor), 100 nM annealed; ATP concentration: 500 uM
How it was run: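 Switching-strand clusters labelled with Cy3 on a modified Illumina MiSeq flow-cell were annealed to 100 nM quencher-labelled ATP aptamer, imaged in selection buffer, and re-imaged after 15 min with 500 uM ATP at 22 °C. This was done over five cycles with NaOH stripping and re-annealing in between. The fluorescence ratio is summed target-cycle over summed buffer-cycle Cy3 intensity per cluster, averaged per switch-domain sequence, excluding clusters outside 100-1000 RFU.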
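Also: ATP exposure 15 min at 22 °C before imaging.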

Sequence	switch fluorescence ratio
CTCTTAGGAT	1.02 ± 0.023
TTGTTTCGGT	1.02 ± 0.063
GGAATTGCA	0.958 ± 0.022
TAGGGTCTCT	0.989 ± 0.012
GCAAGGGTAT	1.01 ± 0.025
TTGTGGGAGG	0.997 ± 0.033
TAGGACGTGG	0.988 ± 0.061
TTCGTAGACT	0.991 ± 0.017
TTCGGGGTAG	0.963 ± 0.048
GGGTTGCTTT	1 ± 0.024
ATAACGAGTC	1.04 ± 0.15
TTGCTATTTT	1 ± 0.028
CAGCTTTTGG	0.993 ± 0.039
TTGCCGGGGG	1.24 ± 0.38
TGCCAGGATT	1.25 ± 0.42
AAATACACGA	1.06 ± 0.029
GAACCAGTGC	1.23 ± 0.083
TGGTTGAGGG	1.01 ± 0.013
CTTTTTTTAG	1.0383 ± 0.001
GACAGAGGTT	1 ± 0.021
GTGTGGTGTT	0.986 ± 0.016
CTTAGAAGTT	1.01 ± 0.027
TTTTTAACAG	0.997 ± 0.021
CATTTTGAGC	0.996 ± 0.014
ATGAATTTGG	0.973 ± 0.025
GGTATAATTA	0.964 ± 0.024

Sequence	switch fluorescence ratio
GGGTTGAACG	0.967 ± 0.03
TTTTCATTCA	1.023 ± 0.0072
GAAGGCTCCG	1.04 ± 0.014
GGGGACGGTA	1.03 ± 0.027
TTTTGACTTA	1.04 ± 0.034
GGCGCCGCGG	0.9937 ± 0.0092
TTTGATGGTA	0.943 ± 0.026
ATGGTCGGGA	0.986 ± 0.026
GATTCGTACG	1.01 ± 0.016
GGGACGGGC	0.933 ± 0.078
ACGGTCGACT	1.05 ± 0.057
CCGTTATGCA	1.26 ± 0.018
GGGTACCGTA	0.959 ± 0.068
TCTTGAATGG	0.986 ± 0.0051
TAGGGGAATT	0.967 ± 0.039
TTGCTAGTTA	0.971 ± 0.037
CATGACATTT	1.06 ± 0.028
TTTGAAGGTG	1.45 ± 0.17
GTGTATGAGA	1.002 ± 0.0083
AGGTTTTGTG	1.02 ± 0.044
AAACTGCTCC	1.517 ± 0.012
GTGGTGGGAC	0.972 ± 0.042
ACGGGGTCTA	0.993 ± 0.027
TTTAACCTGC	1.06 ± 0.011
TCAGTCCGGA	1.02 ± 0.024
GATCTTGCCT	1.02 ± 0.026

Sequence	switch fluorescence ratio
GAGGGACTGT	0.972 ± 0.026
AGCTTTTCTT	1.03 ± 0.017
GGGTTGATTT	0.958 ± 0.053
CGCGTGGTA	1.07 ± 0.013
TAAGGATGGT	0.997 ± 0.01
TGGTAAACGT	1.05 ± 0.026
TTAGAGTATA	1 ± 0.00038
CTATCCTCTT	0.972 ± 0.01
GTCAGTGTCG	0.962 ± 0.021
GATAGCCAAT	1.02 ± 0.016
GACTTTGTTC	0.983 ± 0.012
ATACCTGAG	1.53 ± 0.057
ATGGTTACGG	1 ± 0.035
TTAAGAATTT	0.991 ± 0.031
GGGGATAAGG	0.984 ± 0.042
CCGAACTATG	1.135 ± 0.0027
AATGAGTTTT	0.998 ± 0.027
TGTGGGGCCA	0.96 ± 0.038
TTGCCGGTTT	1.05 ± 0.021
CGTTTTGGGG	0.999 ± 0.032
TGGGATTTTG	1.014 ± 0.0028
CATAACATAG	0.995 ± 0.012
GGGGAGCGGC	1.02 ± 0.0027
GACTGCTGTG	1.012 ± 0.0085
GGGTGATATT	0.996 ± 0.026
AAATGTTTTC	0.979 ± 0.015

Sequence	switch fluorescence ratio
TTTCTAAGGA	0.978 ± 0.017
TTTGGGGACA	1.01 ± 0.019
TCCGGTCAGC	1.13 ± 0.15
TTGGGCTTGG	0.997 ± 0.033
TTCCGGTCCG	1.16 ± 0.18
GTGTAAAGTT	0.972 ± 0.021
CTGGGGTGTG	1.01 ± 0.039
CCTCTGGAGG	1.09 ± 0.013
ACCATAATGG	1.021 ± 0.01
AATGCGTATG	1.02 ± 0.036
CGGGGCAAGG	0.984 ± 0.057
ATATAATTTT	0.979 ± 0.031
GCGTTTATGG	1 ± 0.02
TTTAAGACGA	1.02 ± 0.014
CTAAAGACTC	1.19 ± 0.046
GACACGGCAT	1.13 ± 0.018
GCCTTAGCCG	0.972 ± 0.019
TGTGGAAAAT	1.03 ± 0.074
CGTTGGTCAG	1.02 ± 0.032
TGAGGATTTT	1.05 ± 0.1
TATTCGGGAG	1.0052 ± 0.00035
GGCTCCAACG	1.06 ± 0.013
TCATGGGGGA	1.03 ± 0.046
ACTCTTGTAT	1.045 ± 0.0058
GAGGGGATGA	1.01 ± 0.031
TGGGAATGAA	0.992 ± 0.021

Sequence	switch fluorescence ratio
GGTACAGAGC	1 ± 0.064
GATGGGGGGC	1.01 ± 0.043
CGGTTGGCCT	0.9978 ± 0.0069
CGACCTTTTC	1.4 ± 0.34
TTAAGCTCGG	0.989 ± 0.037
AAGATAGAAC	0.9783 ± 0.0068
TGGGGGTGTA	1.05 ± 0.039
CTTGGAGGGA	1.02 ± 0.03
CTGTGGCCGG	0.967 ± 0.017
CGGGCAATTT	1.38 ± 0.1
AGAGTGGGGT	0.962 ± 0.033
AGGGGAAAGG	0.984 ± 0.014
GGGGCGCGCC	1.022 ± 0.0077
ATGCGGGGGT	0.993 ± 0.037
CTTAGGGGTC	0.997 ± 0.026
CACTGGAGAA	1.044 ± 0.0051
CAGGGCAGCG	1.02 ± 0.04
TTTTGATACT	1.0096 ± 0.00024
TAGAGGGGGG	0.985 ± 0.038
GGGTAGGCGG	0.941 ± 0.029
ATGTACGTTT	0.9983 ± 0.0007
TAGTAATTTG	1.01 ± 0.019
TGGAGGGTTG	1 ± 0.026
CTTAATCACT	1.03 ± 0.083
GTTAGATGTT	1 ± 0.011
CCTCTTGAGG	0.978 ± 0.016

Sequence	switch fluorescence ratio
TTAGTGCGGA	0.994 ± 0.012
GAGATCCATG	1.01 ± 0.038
TGACTGAAGG	0.9503 ± 0.0065
AGGGGGAATG	1 ± 0.044
CGGCAGAGGG	1.02 ± 0.022
ATAAGGAACG	1.01 ± 0.061
TGGACGTGAT	1.83 ± 1
TCGGGAGTCA	1.011 ± 0.0091
TTTCGGGTGC	1.05 ± 0.056
ACAAATGCAG	1.01 ± 0.013
AGGTCTATTG	1.06 ± 0.09
TAAGAGTATC	1.01 ± 0.019
GTTATATGGA	0.996 ± 0.018
GATGTTATCG	0.99 ± 0.015
ATTCCGTATT	1.44 ± 0.68
AGAGAAAGGC	1.08 ± 0.051
CCGATTGGTA	1.027 ± 0.0057
TCAGGCTGTT	0.968 ± 0.04
TTGTTTGGAC	1.03 ± 0.013
AACGCGAGTA	0.986 ± 0.03
ACACGGGGCT	1.01 ± 0.051
GAGTGTTGGT	1 ± 0.022
ACTCATTTGG	1.001 ± 0.0087
